± gives the half width of the 95% confidence interval.
Test: folding stability dG unfold from chymotrypsin proteolysis; higher = more stable
Summary of the method: (§1)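 K50 was inferred by Bayesian fitting of sequencing counts obtained after protease digestion of designed mini-proteins. Unfolding free energy was derived by comparison with a sequence-predicted unfolded-state K50 and a shared folded-state K50, for each protease or both combined. The mini-proteins were under 80 residues, had no cysteine, were carried in a PA-tagged cDNA display construct, and were kept only if AlphaFold2 dimer inter-PAE exceeded 15.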

Sequence	folding stability dG unfold [kcal/mol]
SAEELARRLRELGLEVEIVRIERERRPDGTIRIEVRLDGELVAELEVRLPPPPPPVEVVRDADGRERRVRSA [r9_442_TrROS_Hall]	1.82 ± 0.4
SAGGSAGGSPPPRFRVVVVFEDGTRREFDLTPEELVAFAEVVPDVVVEELPPGEVRITVRLPGSAGGSAGGS [r20_231_TrMRF]	3.11 ± 0.056
SAGGMIVIEVETEEEALEAARELAKKLLEKLKEEGIEEVTLTVTVEVVDEKTKEVKTYTLTLTVKKPSAGGS [r8_163_TrROS_Hall]	4.19 ± 0.051
SAGGSAGGSMRIKTIKVIPQDDGMYSINITFPGVEREIPIPPQMPPDQITEIEIPIYFDGEPPSAGGSAGGS [r12_673_TrROS]	0.436 ± 0.12
SEVVFTLKDKPSPEELLKALAAVPGFSLETILKNTKVSPGKTGPKLTIKKEDFEKLEKENPEALEIIRSGSA [r9_160_TrMRF]	1.01 ± 0.11
SAGGSAGGSKKKLKLVIKLKKGEKAPTAEELKKKLEELGFEIKDIKVVEKDGELYVVLEIELKSAGGSAGGS [r12_1052_TrROS_Hall]	3.4 ± 0.14
SAGGSAGGSAGGSGVSITTTLPVKTTVLQPFNTFENKLLLKEVEKTILTTVTLTLPPLLSAGGSAGGSAGGS [r4_326_JUSTAS]	-0.0828 ± 0.29
SAGGSAGGSADAVVVEVTLPGGGKARAVFFPDGSVVIVVDFPDGRRAVIFLENNEIVVLPVDSAGGSAGGSA [r18_285_TrMRF]	3.15 ± 0.19
SAGGSAGGSAMVVEERRLPDDLLVRTEVEPVEDNELPGPALRVTVTTVDLKTGEETPEVIPESAGGSAGGSA [r18_66_JUSTAS]	0.168 ± 0.03
SAGMDLKIEEEEDPLSGSRLFRIELRDPDGKYNLTVVVLKENGKIKAVLVLRENTGEPLTLPELVELLESAG [r5_872_TrMRF]	3.773 ± 0.017
SAGGSAGGSAGGMYRVEIETKGNKKVYIFPNLSPEELAKFLEDPKVVSYKVEKLSPEELESAGGSAGGSAGG [r7_502_JUSTAS]	2.34 ± 0.094
SAGGWFTWDIPVKADDPKEAVDYAKEQIKNIMREHHPGMPPGMKIDDIKVEPPPNGWYWVKITIEIDPPSAG [r5_320_TrROS]	2.59 ± 0.083
SAGGSAGGSAGGSKLPEGAKITITKNEDGSYTLTVTFPNGEKVEITMSEDELKKLLEALSAGGSAGGSAGGS [r4_16_TrROS_Hall]	3.64 ± 0.11
SAGGSAGGSAGGSVIEVKDPNGKKYIIIKTPDPNVYPVTVIPPDGTTTVTPVSDYSKLLSSAGGSAGGSAGG [r7_769_JUSTAS]	-0.464 ± 0.56
SAGGSAGGSAGITIWFPYDNIPEILEEAQKNGMEIKSVERVPDGWYLIKMPGKPIEIHIWSAGGSAGGSAGG [r17_379_TrROS]	1.55 ± 0.06
SAGGSAGGNTITVFMPYSQARELAEELRDEGITVDIQPYPDWMFITVEIKVPKIDPEDNPDNKDSAGGSAGG [r6_392_TrROS]	1.3 ± 0.074
SAGGSAGGSAGGKVTIEFPTSRVELYPLPGPFVLAEVSFPNRKLLALAHPDGDEILILPISAGGSAGGSAGG [r7_683_TrMRF]	1.05 ± 0.082
SMSPEARALARELAERLRELFPGAEIEIRVEVEVNEDGEVTIRVEIRVRPAPPPEVRVVRDEDGRERRLRSA [r9_82_TrROS_Hall]	2.04 ± 0.04
SAGGMPKTIEVEIVFKRDEEGKIGIDKIKKAAEELAKKFPEVKKVEVDIEEDPETDYVKVKVKVEVESAGGS [r8_258_TrMRF]	2.34 ± 0.032
SAGGSAGGSAGMTITKTEDGTYRLTLTVTETLPNGSTVTRTVTLTVPLEDAEEILAALPPSAGGSAGGSAGG [r11_505_TrROS_Hall]	2.87 ± 0.032
SAGGSAGGSAGMEYSIDKASGKILIKIPDEDKTWILYDPKTGEKYIFKQIGGKWYKVEKVSAGGSAGGSAGG [r11_1036_TrMRF]	1.87 ± 0.14

Test: folding stability dG unfold (combined trypsin and chymotrypsin); higher = more stable
Summary of the method: as §1

Sequence	folding stability dG unfold [kcal/mol]
SAGGSAGGMKLLKVVVERKDGSKRELEIPEELLVELGRPPTPEEIAKLLGIKPEDIVRVEIEDVSAGGSAGG [r6_166_TrMRF]	4.74 ± 0.2
SAGGSAKITIEKVDDQYRITVTVPVYDENGNKVPLTFDFVYPSDDPDAFLDDVIRRIRELNPDLEKSAGGSA [r15_1050_TrMRF]	2.77 ± 0.1
SAGGMKLTVEIEYDEETEEVTIRIRNEETGEEIEITLSKEEVEKLLEALEKNPEKSIEEALLEALKESAGGS [r8_484_TrROS_Hall]	2.43 ± 0.25
SAGGSAGGSAGGSSSIYYDPRYPNVAVNPETGEAVTGIPLEELEKLGATPVGPDWVRIDSAGGSAGGSAGGS [r4_306_TrMRF]	-0.0656 ± 0.13
SAGGSAGGSSTATFTLSRLPDGTYRLTLYDPSTNKVTTEEVPASRPDEYSAVTVSSDGTVTTASAGGSAGGS [r20_11_JUSTAS]	0.662 ± 0.095
SAGGSAGGSAGMVLRVRTKDGKVIEIKDLSEELKNMTAEQLAEELKKKFPDLKIEVEEVPSAGGSAGGSAGG [r17_42_TrROS_Hall]	2.37 ± 0.15
SAGMVLEYEGVDEEEKLLARAEELRAELRARHPRVRVELEVEVKPTPGNKYRYRVTLTIEPLAPDEARASAG [r5_936_JUSTAS]	1.99 ± 0.15
SAGGSAGGSKKPPIYKIEIEIDGKKLTIEAKSKEEALKALKEELKKKYPNLKITKIKIEKVKPSAGGSAGGS [r12_429_TrROS_Hall]	2.14 ± 0.15
SAGGSAGMPKVRIPIEEDPENGNILIRVKMPNSGREHEYHIPGNLKEAKENFEDHFGFDITDVEIWSAGGSA [r15_101_TrROS]	-0.0816 ± 0.38
SAGGSAGGPLENDIPIPLTVPLPGPGTAELFLLPSTGEVLALVEGKPYLVSLEDLKDGVFRLGLSAGGSAGG [r6_939_TrMRF]	0.576 ± 0.12
SAGGSAGGSKKDPEDNPEQAKPPIPPIRVEIYPPDGQPETFEFHSLEEITEWIQERGYTVKIESAGGSAGGS [r12_244_TrROS]	0.974 ± 0.065
SAGGSALPEDATVKVEVTVVTLVYDPETGGFYLKVAKVEKEIRFDPKNGKLEVKVKKVEVKVFKLGSAGGSA [r15_517_TrMRF]	4.19 ± 0.33
SIKELAKELPGFQVSVEPDDPGQVKITIMVPDDPQQQKRFQNKIIELANDIQGEHGMPVTIEIQPVPPGDSA [r9_1099_TrROS]	-0.00283 ± 0.081
SAGGSAGGSAGKPEVEVETRLIKIDEEKGYYLRVTRVRVKNEDGSEFEFLSIEIIPKEDLSAGGSAGGSAGG [r11_51_TrROS_Hall]	3.56 ± 0.071
SAGGSAGGSDKYVVVIRVVNKETKKVTTLVFEGLKTPEELKAAVEALLPPGVVKVEIRVVKLPSAGGSAGGS [r20_29_TrROS_Hall]	3.18 ± 0.15
SAGGGSTTTRTIGSKDGTVATVTVTTDPATGTTTVTISSPSPEVLEEVAAQLGLPVREVLPDGTVVLASAGG [r13_937_JUSTAS]	1.08 ± 0.037
SAMKIKIKVIGVLKPENHALIFLELDDSIPPEIPVVIRIKNENGEILEIPIEGNRALLVVDDRKIEILTSAG [r14_350_TrMRF]	1.73 ± 0.12
SAGGSAGGSAKKKILVKKPDGRLLLIEIDKDKPNTVRIYDIDTGKKIELSVEDLKKLKIKKSAGGSAGGSAG [r3_451_TrROS_Hall]	2.08 ± 0.052
SSEELRELILNEAAKLGVKIKEIKVKEDPSTNTVSIEITVPDGKVIKLSFTRTSDGGYSYDINELKAGLESA [r9_85_JUSTAS]	> 6
SAPLTPEEAEEWAETLADELADKAGIPNVEIKVEPSPDGYWTAEIRFPNNGKKIRITWENGRPKITEIESAG [r14_925_TrROS]	2.74 ± 0.16
SAGGSKKVDIKPGKVKKVEVKTLPNGKKLLVLYFPLEDGKEKVVVISSDFKTPEEALEAAYKQLGKSAGGSA [r2_347_TrMRF]	1.23 ± 0.21

Sequence	folding stability dG unfold [kcal/mol]
SAEELARRLRELGLEVEIVRIERERRPDGTIRIEVRLDGELVAELEVRLPPPPPPVEVVRDADGRERRVRSA [r9_442_TrROS_Hall]	1.9 ± 0.27
SAGGSAGGSPPPRFRVVVVFEDGTRREFDLTPEELVAFAEVVPDVVVEELPPGEVRITVRLPGSAGGSAGGS [r20_231_TrMRF]	2.91 ± 0.1
SAGGMIVIEVETEEEALEAARELAKKLLEKLKEEGIEEVTLTVTVEVVDEKTKEVKTYTLTLTVKKPSAGGS [r8_163_TrROS_Hall]	4.08 ± 0.21
SAGGSAGGSMRIKTIKVIPQDDGMYSINITFPGVEREIPIPPQMPPDQITEIEIPIYFDGEPPSAGGSAGGS [r12_673_TrROS]	0.212 ± 0.097
SEVVFTLKDKPSPEELLKALAAVPGFSLETILKNTKVSPGKTGPKLTIKKEDFEKLEKENPEALEIIRSGSA [r9_160_TrMRF]	1.09 ± 0.089
SAGGSAGGSKKKLKLVIKLKKGEKAPTAEELKKKLEELGFEIKDIKVVEKDGELYVVLEIELKSAGGSAGGS [r12_1052_TrROS_Hall]	3.24 ± 0.32
SAGGSAGGSAGGSGVSITTTLPVKTTVLQPFNTFENKLLLKEVEKTILTTVTLTLPPLLSAGGSAGGSAGGS [r4_326_JUSTAS]	0.148 ± 0.21
SAGGSAGGSADAVVVEVTLPGGGKARAVFFPDGSVVIVVDFPDGRRAVIFLENNEIVVLPVDSAGGSAGGSA [r18_285_TrMRF]	3.63 ± 0.12
SAGGSAGGSAMVVEERRLPDDLLVRTEVEPVEDNELPGPALRVTVTTVDLKTGEETPEVIPESAGGSAGGSA [r18_66_JUSTAS]	-0.0827 ± 0.091
SAGMDLKIEEEEDPLSGSRLFRIELRDPDGKYNLTVVVLKENGKIKAVLVLRENTGEPLTLPELVELLESAG [r5_872_TrMRF]	3.43 ± 0.086
SAGGSAGGSAGGMYRVEIETKGNKKVYIFPNLSPEELAKFLEDPKVVSYKVEKLSPEELESAGGSAGGSAGG [r7_502_JUSTAS]	2.27 ± 0.08
SAGGWFTWDIPVKADDPKEAVDYAKEQIKNIMREHHPGMPPGMKIDDIKVEPPPNGWYWVKITIEIDPPSAG [r5_320_TrROS]	2.29 ± 0.15
SAGGSAGGSAGGSKLPEGAKITITKNEDGSYTLTVTFPNGEKVEITMSEDELKKLLEALSAGGSAGGSAGGS [r4_16_TrROS_Hall]	3.79 ± 0.14
SAGGSAGGSAGGSVIEVKDPNGKKYIIIKTPDPNVYPVTVIPPDGTTTVTPVSDYSKLLSSAGGSAGGSAGG [r7_769_JUSTAS]	-0.527 ± 0.42
SAGGSAGGSAGITIWFPYDNIPEILEEAQKNGMEIKSVERVPDGWYLIKMPGKPIEIHIWSAGGSAGGSAGG [r17_379_TrROS]	1.33 ± 0.07
SAGGSAGGNTITVFMPYSQARELAEELRDEGITVDIQPYPDWMFITVEIKVPKIDPEDNPDNKDSAGGSAGG [r6_392_TrROS]	1.35 ± 0.089
SAGGSAGGSAGGKVTIEFPTSRVELYPLPGPFVLAEVSFPNRKLLALAHPDGDEILILPISAGGSAGGSAGG [r7_683_TrMRF]	1.07 ± 0.042
SMSPEARALARELAERLRELFPGAEIEIRVEVEVNEDGEVTIRVEIRVRPAPPPEVRVVRDEDGRERRLRSA [r9_82_TrROS_Hall]	1.8 ± 0.074
SAGGMPKTIEVEIVFKRDEEGKIGIDKIKKAAEELAKKFPEVKKVEVDIEEDPETDYVKVKVKVEVESAGGS [r8_258_TrMRF]	2.1 ± 0.14
SAGGSAGGSAGMTITKTEDGTYRLTLTVTETLPNGSTVTRTVTLTVPLEDAEEILAALPPSAGGSAGGSAGG [r11_505_TrROS_Hall]	2.72 ± 0.089
SAGGSAGGSAGMEYSIDKASGKILIKIPDEDKTWILYDPKTGEKYIFKQIGGKWYKVEKVSAGGSAGGSAGG [r11_1036_TrMRF]	1.91 ± 0.26

Reference: the supplement of paper PMC12764529
